# Assay results reported in patent US10464978B2, “Peptides and combination of peptides for use in immunotherapy against ovarian cancer and other cancers” (immatics biotechnologies GmbH, priority 2015, dated 2019).
# Target: HLA-A*02:01 (Homo sapiens, UniProt P04439, D140Y/D185E/D98H/E176V/E277Q/G131W/G231S/I119V/I121R/I166T/I218V/L300P/L318F/N151K/N90K/P208A/P217A/Q86G/Q94H/R138H/R169H/T345S)
# Assay: MHC binding assay: UV-ligand exchange with beta2m ELISA (peptide exchange yield)
# Details: binding to HLA-A*02:01
# Source text: Candidate peptides for T cell based therapies according to the present invention were further tested for their MHC binding capacity (affinity). The individual peptide-MHC complexes were produced by UV-ligand exchange, where a UV-sensitive peptide is cleaved upon UV-irradiation, and exchanged with the peptide of interest as analyzed. Only peptide candidates that can effectively bind and stabilize the peptide-receptive MHC molecules prevent dissociation of the MHC complexes. To determine the yield of the exchange reaction, an ELISA was performed based on the detection of the light chain ([…]) of stabilized MHC complexes. The assay was performed as generally described in Rodenko et al. (Rodenko et al., 2006).
# 96 well MAXISorp plates (NUNC) were coated over night with 2 ug/ml streptavidin in PBS at room temperature, washed 4× and blocked for 1 h at 37° C. in 2% BSA containing blocking buffer. […] Peptide-MHC monomers of the UV-exchange reaction were diluted 100 fold in blocking buffer. Samples were incubated for 1h at 37° C., washed four times, incubated with 2 ug/ml HRP conjugated anti-β2m for 1h at 37° C., washed again and detected with TMB solution that is stopped with […]. Absorption was measured at 450 nm. Candidate peptides that show a high exchange yield (preferably higher than 50%, most preferred higher than 75%) are generally preferred for a generation and production of antibodies or fragments thereof, and/or T cell receptors or fragments thereof, as they show sufficient avidity to the MHC molecules and prevent dissociation of the MHC complexes.
row,Substance,"Peptide exchange (MHC class I binding score, peptide exchange yield)"
1,189 (ALQRKLPYV; listed as Homo sapiens) [compound 189],“+++” (≥50 = +++)
2,157 (SLNDEVPEV; listed as Homo sapiens) [compound 157],“++” (≥20% = ++)
3,321 (GLFEDVTQPGILL; listed as Homo sapiens) [compound 321],“++++” (≥75% = ++++)
4,320 (KMFEFVEPLL; listed as Homo sapiens) [compound 320],“++++” (≥75% = ++++)
5,285 (QLLHVGVTV; listed as Homo sapiens) [compound 285],“+++” (≥50 = +++)
6,350 (ALLDVTHSELTV; listed as Homo sapiens) [compound 350],“+++” (≥50 = +++)
7,73 (NIFDLQIYV; listed as Homo sapiens) [compound 73],“+++” (≥50 = +++)
8,278 (QLLDVVLTI; listed as Homo sapiens) [compound 278],“++” (≥20% = ++)
9,35 (KINDTIYEV; listed as Homo sapiens) [compound 35],“+++” (≥50 = +++)
10,269 (RVLEVGALQAV; listed as Homo sapiens) [compound 269],“++” (≥20% = ++)
11,4 (GIMEHITKI; listed as Homo sapiens) [compound 4],“++++” (≥75% = ++++)
12,342 (HIYDKVMTV; listed as Homo sapiens) [compound 342],“+++” (≥50 = +++)
13,233 (VLSETLYEL; listed as Homo sapiens) [compound 233],“++” (≥20% = ++)
14,253 (GLDAATATV; listed as Homo sapiens) [compound 253],“++” (≥20% = ++)
15,55 (SLLDLETLSL; listed as Homo sapiens) [compound 55],“++++” (≥75% = ++++)
16,44 (ILDPISSGFLL; listed as Homo sapiens) [compound 44],“++” (≥20% = ++)
17,243 (LLLNELPSV; listed as Homo sapiens) [compound 243],“+++” (≥50 = +++)
18,382 (ALQNYIKEA; listed as Homo sapiens) [compound 382],“++” (≥20% = ++)
19,276 (ALFTFSPLTV; listed as Homo sapiens) [compound 276],“+++” (≥50 = +++)

row,Substance,"Peptide exchange (MHC class I binding score, peptide exchange yield)"
1,358 (ALDEYTSEL; listed as Homo sapiens) [compound 358],“++++” (≥75% = ++++)
2,288 (NLINEINGV; listed as Homo sapiens) [compound 288],“+++” (≥50 = +++)
3,215 (QLINHLHAV; listed as Homo sapiens) [compound 215],“+++” (≥50 = +++)
4,41 (SLMPHIPGL; listed as Homo sapiens) [compound 41],“+++” (≥50 = +++)
5,12 (SLWPDPMEV; listed as Homo sapiens) [compound 12],“+++” (≥50 = +++)
6,20 (RMIEYFIDV; listed as Homo sapiens) [compound 20],“+++” (≥50 = +++)
7,314 (ALIAEGIALV; listed as Homo sapiens) [compound 314],“+++” (≥50 = +++)
8,369 (GLFPEHLIDV; listed as Homo sapiens) [compound 369],“+++” (≥50 = +++)
9,47 (ILLSVPLLVV; listed as Homo sapiens) [compound 47],“++” (≥20% = ++)
10,234 (ALMEDTGRQML; listed as Homo sapiens) [compound 234],“++” (≥20% = ++)
11,103 (TLAEEVVAL; listed as Homo sapiens) [compound 103],“+++” (≥50 = +++)
12,354 (LILEGVDTV; listed as Homo sapiens) [compound 354],“++” (≥20% = ++)
13,159 (GLVGNPLPSV; listed as Homo sapiens) [compound 159],“++++” (≥75% = ++++)
14,153 (FLIANVLYL; listed as Homo sapiens) [compound 153],“+” (≥10% = +)
15,248 (FLFPNQYVDV; listed as Homo sapiens) [compound 248],“+++” (≥50 = +++)
16,19 (FMVDNEAIYDI; listed as Homo sapiens) [compound 19],“++++” (≥75% = ++++)
17,216 (NLWEDPYYL; listed as Homo sapiens) [compound 216],“+++” (≥50 = +++)
18,158 (KLFDVDEDGYI; listed as Homo sapiens) [compound 158],“+++” (≥50 = +++)

# Second part, the substance after the results:
row,"Peptide exchange (MHC class I binding score, peptide exchange yield)",Substance
1,“+++” (≥50 = +++),386 (ILFRYPLTI; listed as Homo sapiens) [compound 386]
2,“+++” (≥50 = +++),517 (LLMPIPEGLTL; listed as Homo sapiens) [compound 517]
3,“+++” (≥50 = +++),596 (ALLDQTKTLAESAL; listed as Homo sapiens) [compound 596]
4,“+++” (≥50 = +++),558 (GLLENIPRV; listed as Homo sapiens) [compound 558]
5,“+++” (≥50 = +++),448 (NLLETKLQL; listed as Homo sapiens) [compound 448]
6,“+++” (≥50 = +++),467 (FLAKDFNFL; listed as Homo sapiens) [compound 467]
7,“++++” (≥75% = ++++),527 (FLLEPGNLEV; listed as Homo sapiens) [compound 527]
8,“+++” (≥50 = +++),622 (RLLGEEVVRVLQA; listed as Homo sapiens) [compound 622]
9,“++” (≥20% = ++),403 (KLYDRILRV; listed as Homo sapiens) [compound 403]
10,“+++” (≥50 = +++),518 (KLNAEVACV; listed as Homo sapiens) [compound 518]
11,“+++” (≥50 = +++),515 (LLQELVLFL; listed as Homo sapiens) [compound 515]
12,“++” (≥20% = ++),603 (FLIEPEHVNTV; listed as Homo sapiens) [compound 603]
13,“+++” (≥50 = +++),449 (KLAEGLDIQL; listed as Homo sapiens) [compound 449]
14,“++” (≥20% = ++),505 (SLAPGDVVRQV; listed as Homo sapiens) [compound 505]
15,“+++” (≥50 = +++),567 (SLLPLDDIVRV; listed as Homo sapiens) [compound 567]
16,“+++” (≥50 = +++),551 (KLYESLLPFA; listed as Homo sapiens) [compound 551]
17,“+++” (≥50 = +++),525 (VLLEAGEGLVTI; listed as Homo sapiens) [compound 525]
18,“++” (≥20% = ++),429 (GLVNDLARV; listed as Homo sapiens) [compound 429]
19,“+++” (≥50 = +++),397 (YLFGERLLEC; listed as Homo sapiens) [compound 397]
20,“+++” (≥50 = +++),506 (KLLGKVETA; listed as Homo sapiens) [compound 506]
21,“++” (≥20% = ++),434 (KVSNSGITRV; listed as Homo sapiens) [compound 434]
22,“+++” (≥50 = +++),488 (FLAEDPKVTL; listed as Homo sapiens) [compound 488]
23,“+++” (≥50 = +++),591 (SMAELDIKL; listed as Homo sapiens) [compound 591]
24,“+++” (≥50 = +++),489 (KMWEELPEVV; listed as Homo sapiens) [compound 489]
